# B1: Ubiquitin carboxyl-terminal hydrolase BAP1 (Mus musculus), Q99PU7 (parent)
# chain: MNKGWLELESDPGLFTLLVEDFGVKGVQVEEIYDLQSKCQGPVYGFIFLFKWIEERRSRRKVSTLVDDTSVIDDDIVNNMFFAHQLIPNSCATHALLSVLLNCSNVDLGPTLSRMKDFTKGFSPESKGYAIGNAPELAKAHNSHARPEPRHLPEKQNGLSAVRTMEAFHFVSYVPITGRLFELDGLKVYPIDHGPWGEDEEWTDKARRVIMERIGLATAGEPYHDIRFNLMAVVPDRRIKYETRLHVLKVNRQTVLEALQQLIRVTQPELIQTHKSQESQLPEESKPASSKSPLGLEAGRTPVASECTQTDGAEEVAGSCPQTTTHSPPSKCKLVVKPPGSSLNGVPPNPAPIVQRLPAFLDNHNYAKSPMQEEEDLAAGVGRSRVPVRAPQQYSEDEDDYEDEDEDVQNTNPAIRYKRKGTGKPGSLSNSSDGQLSVLQPNTINVLTEKLQESQKDLSVPLSIKTSSGAGSPAVAVPTHSQPSPTPSNESTDTASEIGSAFNSPLRSPIRSANPTRPSSPVTSHISKVLFGEDDSLLRVDCIRYNRAVRDLGPVISTGLLHLAEDGVLSPLALTEGGKGSSPSTRSSQGSQGSSGLEEKEVVEVTESRDKPGLNRSSEPLSGEKYSPKELLALLKCVEAEIANYEACLKEEVEKRKKFKIDDQRRTHNYDEFICTFISMLAQEGMLANLVEQNISVRRRQGVSIGRLHKQRKPDRRKRSRPYKAKRQ
# Variants of: B1
# Conditions: with brca1_human BRCA1, P38398
# Sequence of brca1_human BRCA1, P38398 (P38398 whole entry, looked up): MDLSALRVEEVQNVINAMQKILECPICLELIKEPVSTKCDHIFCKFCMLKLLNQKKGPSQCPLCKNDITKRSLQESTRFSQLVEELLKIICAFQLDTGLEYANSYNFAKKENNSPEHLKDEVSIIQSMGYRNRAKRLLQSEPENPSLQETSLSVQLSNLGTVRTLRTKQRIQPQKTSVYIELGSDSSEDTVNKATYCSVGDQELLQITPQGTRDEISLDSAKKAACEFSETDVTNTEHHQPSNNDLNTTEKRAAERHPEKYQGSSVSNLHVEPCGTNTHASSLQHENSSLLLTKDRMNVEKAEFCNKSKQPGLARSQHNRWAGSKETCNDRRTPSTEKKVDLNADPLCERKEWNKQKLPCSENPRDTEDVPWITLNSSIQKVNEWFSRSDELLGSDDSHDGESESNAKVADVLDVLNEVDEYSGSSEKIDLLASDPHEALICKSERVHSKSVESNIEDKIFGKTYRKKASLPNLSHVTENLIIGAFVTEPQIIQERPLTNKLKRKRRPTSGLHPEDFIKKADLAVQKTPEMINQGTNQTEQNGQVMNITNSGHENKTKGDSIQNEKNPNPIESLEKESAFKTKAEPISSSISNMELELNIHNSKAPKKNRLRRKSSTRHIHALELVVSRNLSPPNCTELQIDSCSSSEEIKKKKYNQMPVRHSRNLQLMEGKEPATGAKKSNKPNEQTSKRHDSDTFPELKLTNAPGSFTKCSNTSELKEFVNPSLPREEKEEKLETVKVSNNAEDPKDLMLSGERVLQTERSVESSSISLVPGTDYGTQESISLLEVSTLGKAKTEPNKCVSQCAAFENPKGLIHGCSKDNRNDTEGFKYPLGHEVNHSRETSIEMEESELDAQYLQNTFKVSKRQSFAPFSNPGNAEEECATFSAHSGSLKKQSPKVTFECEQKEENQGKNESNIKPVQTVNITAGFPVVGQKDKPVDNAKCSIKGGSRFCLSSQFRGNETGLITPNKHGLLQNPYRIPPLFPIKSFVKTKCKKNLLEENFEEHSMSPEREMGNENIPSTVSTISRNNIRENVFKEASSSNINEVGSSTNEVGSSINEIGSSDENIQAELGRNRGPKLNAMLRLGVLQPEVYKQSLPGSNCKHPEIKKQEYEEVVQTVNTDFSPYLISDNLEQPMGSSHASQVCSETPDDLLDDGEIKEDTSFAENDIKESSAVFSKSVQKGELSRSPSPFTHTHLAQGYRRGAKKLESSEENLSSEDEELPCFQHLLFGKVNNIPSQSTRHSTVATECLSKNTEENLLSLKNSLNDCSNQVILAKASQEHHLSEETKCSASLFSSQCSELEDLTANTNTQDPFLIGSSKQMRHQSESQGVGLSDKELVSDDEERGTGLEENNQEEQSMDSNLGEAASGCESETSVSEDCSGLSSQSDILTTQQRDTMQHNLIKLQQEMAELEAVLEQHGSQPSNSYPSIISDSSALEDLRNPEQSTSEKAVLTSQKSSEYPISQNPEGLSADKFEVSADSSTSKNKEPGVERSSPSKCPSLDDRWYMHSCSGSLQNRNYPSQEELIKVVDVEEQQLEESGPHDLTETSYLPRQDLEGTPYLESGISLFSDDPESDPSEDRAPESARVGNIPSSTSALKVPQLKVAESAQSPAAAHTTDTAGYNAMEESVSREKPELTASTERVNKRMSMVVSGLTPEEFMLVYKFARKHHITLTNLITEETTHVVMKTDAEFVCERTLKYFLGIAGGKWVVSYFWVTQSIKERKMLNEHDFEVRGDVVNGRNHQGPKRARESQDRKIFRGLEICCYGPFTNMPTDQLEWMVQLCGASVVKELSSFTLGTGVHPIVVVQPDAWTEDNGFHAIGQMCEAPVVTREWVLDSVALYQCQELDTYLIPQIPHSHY
row,Variant,effect of a mutation on the interaction
1,L690P,disrupting interaction
